# Laboratory results as given in US20230406948A1.
# Experiments:
# [1] = molecular target: human CD40 on cells (native CD40 on Ramos cells, human B cells, human monocyte-derived dendritic cells; cell surface CD40) (human) (UniProt P25942); experiment: cell-based or functional assay
# [2] = molecular target: human CD40 on cells (native CD40 on Ramos cells, human B cells, human monocyte-derived dendritic cells; cell surface CD40) (human) (UniProt P25942); experiment: FACS on live Ramos cells, goat anti-human IgG (H+L) PE
# Chain of human CD40 on cells (native CD40 on Ramos cells, human B cells, human monocyte-derived dendritic cells; cell surface CD40) (human) (P25942 21-193): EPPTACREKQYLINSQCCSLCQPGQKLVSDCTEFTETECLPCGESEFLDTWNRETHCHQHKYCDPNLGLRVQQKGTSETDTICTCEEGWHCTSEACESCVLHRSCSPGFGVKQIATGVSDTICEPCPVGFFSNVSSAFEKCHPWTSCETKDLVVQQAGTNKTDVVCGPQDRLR
substance,measurement,setting,value
SGN-40 (antibody),"EC50 (ng/ml), CD40 agonist activity: up-regulation of CD86 on human B cells",[1],1260 ng/mL
same,EC50,[2],0.0218 mg/L
